# US20240209076A1 (KODIAK SCIENCES, published 2024)
# Biological target: T1, recombinant human IL-6 (human, UniProt P05231 30-212)
# T1 construct: Bought protein
# Assay: SPR Biacore, supernatant Ab on Protein A chip, IL-6 analyte, 25 C
# Procedure: Antibodies were captured on a Protein A chip (GE) by injecting 1:20 dilution of cell supernatant at 10 μL/min for 60 seconds. […] The sensor chip was regenerated by a 60 seconds injection of 10 mM Glycine pH 1.7 at flow rate of 50 μL/min. […] For this setup, 1 μg/mL of purified antibody was injected over a Protein A chip at 10 μL/min for 25-28 seconds. Data analysis for supernatant and purified samples were performed using BIAevaluation software (GE). All sensorgrams were double reference subtracted and fit using a 1:1 Langmuir binding model.
# T1 sequence (P05231 30-212 limits assumed): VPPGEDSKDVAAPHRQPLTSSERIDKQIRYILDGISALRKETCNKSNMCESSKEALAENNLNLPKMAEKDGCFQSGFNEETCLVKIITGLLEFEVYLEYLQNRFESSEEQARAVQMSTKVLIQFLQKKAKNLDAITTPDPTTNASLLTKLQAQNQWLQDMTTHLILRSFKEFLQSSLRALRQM
Binder,Kd,koff,kon
"anti-IL-6 antibody, light chain S51R (heavy chain WT) (antibody, V domains shown, See note of m2; also called WT / S51R) VH: EVQLVESGGGLVQPGGSLRLSCAASGFTFSPFAMSWVRQAPGKGLEWVAKISPGGSWTYYSDTVTGRFTFSLDTSKSTAYLQMNSLRAEDTAVYYCARQLWGYYALDIWGQGTLVTVSS VL: DIQLTQSPSSLSASVGDRVTITCSASISVSYMYWYQQKPGKAPKLLIYDMRNLASGVPSRFSGSGSGTDFTLTISSLQPEDFATYYCMQWSGYPYTFGQGTKVEIK",0.463 nM,0.000231 s⁻¹,499000 M⁻¹ s⁻¹
"anti-IL-6 antibody, light chain Y95G (heavy chain WT) (antibody, V domains shown, See note of m2; also called WT / Y95G) VH: EVQLVESGGGLVQPGGSLRLSCAASGFTFSPFAMSWVRQAPGKGLEWVAKISPGGSWTYYSDTVTGRFTFSLDTSKSTAYLQMNSLRAEDTAVYYCARQLWGYYALDIWGQGTLVTVSS VL: DIQLTQSPSSLSASVGDRVTITCSASISVSYMYWYQQKPGKAPKLLIYDMSNLASGVPSRFSGSGSGTDFTLTISSLQPEDFATYYCMQWSGYPGTFGQGTKVEIK",0.383 nM,0.000338 s⁻¹,882000 M⁻¹ s⁻¹
"anti-IL-6 antibody, light chain S55Y (heavy chain WT) (antibody, V domains shown, See note of m2; also called WT / S55Y) VH: EVQLVESGGGLVQPGGSLRLSCAASGFTFSPFAMSWVRQAPGKGLEWVAKISPGGSWTYYSDTVTGRFTFSLDTSKSTAYLQMNSLRAEDTAVYYCARQLWGYYALDIWGQGTLVTVSS VL: DIQLTQSPSSLSASVGDRVTITCSASISVSYMYWYQQKPGKAPKLLIYDMSNLAYGVPSRFSGSGSGTDFTLTISSLQPEDFATYYCMQWSGYPYTFGQGTKVEIK",0.461 nM,0.000201 s⁻¹,436000 M⁻¹ s⁻¹
"anti-IL-6 antibody, light chain S51K (heavy chain WT) (antibody, V domains shown, See note of m2; also called WT / S51K) VH: EVQLVESGGGLVQPGGSLRLSCAASGFTFSPFAMSWVRQAPGKGLEWVAKISPGGSWTYYSDTVTGRFTFSLDTSKSTAYLQMNSLRAEDTAVYYCARQLWGYYALDIWGQGTLVTVSS VL: DIQLTQSPSSLSASVGDRVTITCSASISVSYMYWYQQKPGKAPKLLIYDMKNLASGVPSRFSGSGSGTDFTLTISSLQPEDFATYYCMQWSGYPYTFGQGTKVEIK",0.535 nM,0.000212 s⁻¹,396000 M⁻¹ s⁻¹
"anti-IL-6 antibody, light chain V29L (heavy chain WT) (antibody, V domains shown, See note of m2; also called WT / V29L) VH: EVQLVESGGGLVQPGGSLRLSCAASGFTFSPFAMSWVRQAPGKGLEWVAKISPGGSWTYYSDTVTGRFTFSLDTSKSTAYLQMNSLRAEDTAVYYCARQLWGYYALDIWGQGTLVTVSS VL: DIQLTQSPSSLSASVGDRVTITCSASISLSYMYWYQQKPGKAPKLLIYDMSNLASGVPSRFSGSGSGTDFTLTISSLQPEDFATYYCMQWSGYPYTFGQGTKVEIK",0.487 nM,0.000171 s⁻¹,351000 M⁻¹ s⁻¹
"anti-IL-6 antibody, light chain S91A (heavy chain WT) (antibody, V domains shown, See note of m2; also called WT / S91A) VH: EVQLVESGGGLVQPGGSLRLSCAASGFTFSPFAMSWVRQAPGKGLEWVAKISPGGSWTYYSDTVTGRFTFSLDTSKSTAYLQMNSLRAEDTAVYYCARQLWGYYALDIWGQGTLVTVSS VL: DIQLTQSPSSLSASVGDRVTITCSASISVSYMYWYQQKPGKAPKLLIYDMSNLASGVPSRFSGSGSGTDFTLTISSLQPEDFATYYCMQWAGYPYTFGQGTKVEIK",0.407 nM,0.000139 s⁻¹,341000 M⁻¹ s⁻¹

# Now those with a lower Kd, led by results:
Kd,koff,kon,Binder
0.316 nM,0.000173 s⁻¹,548000 M⁻¹ s⁻¹,"anti-IL-6 antibody, light chain S30G (heavy chain WT) (antibody, V domains shown, See note of m2; also called WT / S30G) VH: EVQLVESGGGLVQPGGSLRLSCAASGFTFSPFAMSWVRQAPGKGLEWVAKISPGGSWTYYSDTVTGRFTFSLDTSKSTAYLQMNSLRAEDTAVYYCARQLWGYYALDIWGQGTLVTVSS VL: DIQLTQSPSSLSASVGDRVTITCSASISVGYMYWYQQKPGKAPKLLIYDMSNLASGVPSRFSGSGSGTDFTLTISSLQPEDFATYYCMQWSGYPYTFGQGTKVEIK"
0.296 nM,0.000216 s⁻¹,729000 M⁻¹ s⁻¹,"anti-IL-6 antibody, light chain S51D (heavy chain WT) (antibody, V domains shown, See note of m2; also called WT / S51D) VH: EVQLVESGGGLVQPGGSLRLSCAASGFTFSPFAMSWVRQAPGKGLEWVAKISPGGSWTYYSDTVTGRFTFSLDTSKSTAYLQMNSLRAEDTAVYYCARQLWGYYALDIWGQGTLVTVSS VL: DIQLTQSPSSLSASVGDRVTITCSASISVSYMYWYQQKPGKAPKLLIYDMDNLASGVPSRFSGSGSGTDFTLTISSLQPEDFATYYCMQWSGYPYTFGQGTKVEIK"
0.109 nM,0.000107 s⁻¹,987000 M⁻¹ s⁻¹,"anti-IL-6 antibody, light chain S55R (heavy chain WT) (antibody, V domains shown, See note of m2; also called WT / S55R) VH: EVQLVESGGGLVQPGGSLRLSCAASGFTFSPFAMSWVRQAPGKGLEWVAKISPGGSWTYYSDTVTGRFTFSLDTSKSTAYLQMNSLRAEDTAVYYCARQLWGYYALDIWGQGTLVTVSS VL: DIQLTQSPSSLSASVGDRVTITCSASISVSYMYWYQQKPGKAPKLLIYDMSNLARGVPSRFSGSGSGTDFTLTISSLQPEDFATYYCMQWSGYPYTFGQGTKVEIK"
